Test results taken from patent publication US20180327500A1 (SYMPHOGEN A S, published 2018).

T1: Mouse Blade 1-5
T1 construct: human/mouse chimera on transfected HEK293 cells; also called AA 25-430
T1 MET ECD-SV5-GPI fusion: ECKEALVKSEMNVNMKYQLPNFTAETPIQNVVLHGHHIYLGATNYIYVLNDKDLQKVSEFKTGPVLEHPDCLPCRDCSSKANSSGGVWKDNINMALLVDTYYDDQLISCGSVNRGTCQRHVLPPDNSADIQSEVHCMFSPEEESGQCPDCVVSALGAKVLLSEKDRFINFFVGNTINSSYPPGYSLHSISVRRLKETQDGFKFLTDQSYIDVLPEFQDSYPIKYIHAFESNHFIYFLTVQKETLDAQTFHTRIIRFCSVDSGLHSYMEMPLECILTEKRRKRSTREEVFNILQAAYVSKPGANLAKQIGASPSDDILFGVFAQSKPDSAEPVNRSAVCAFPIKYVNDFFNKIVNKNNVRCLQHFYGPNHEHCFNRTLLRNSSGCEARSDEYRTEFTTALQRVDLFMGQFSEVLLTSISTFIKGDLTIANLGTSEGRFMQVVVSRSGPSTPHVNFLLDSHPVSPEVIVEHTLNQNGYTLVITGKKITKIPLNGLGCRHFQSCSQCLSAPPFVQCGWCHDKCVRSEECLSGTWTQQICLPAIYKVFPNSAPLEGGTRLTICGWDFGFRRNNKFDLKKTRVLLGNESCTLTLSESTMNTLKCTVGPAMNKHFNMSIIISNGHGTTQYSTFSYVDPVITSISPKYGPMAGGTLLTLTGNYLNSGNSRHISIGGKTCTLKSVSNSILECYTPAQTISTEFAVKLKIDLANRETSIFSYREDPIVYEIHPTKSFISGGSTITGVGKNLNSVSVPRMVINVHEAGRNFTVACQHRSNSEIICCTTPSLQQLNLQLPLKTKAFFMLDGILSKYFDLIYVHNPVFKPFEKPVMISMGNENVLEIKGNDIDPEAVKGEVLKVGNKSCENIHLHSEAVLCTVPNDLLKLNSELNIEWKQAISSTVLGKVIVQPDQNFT

T2: LS4
T2 construct: human/mouse chimera on transfected HEK293 cells; also called AA 25-371
T2 MET ECD-SV5-GPI fusion: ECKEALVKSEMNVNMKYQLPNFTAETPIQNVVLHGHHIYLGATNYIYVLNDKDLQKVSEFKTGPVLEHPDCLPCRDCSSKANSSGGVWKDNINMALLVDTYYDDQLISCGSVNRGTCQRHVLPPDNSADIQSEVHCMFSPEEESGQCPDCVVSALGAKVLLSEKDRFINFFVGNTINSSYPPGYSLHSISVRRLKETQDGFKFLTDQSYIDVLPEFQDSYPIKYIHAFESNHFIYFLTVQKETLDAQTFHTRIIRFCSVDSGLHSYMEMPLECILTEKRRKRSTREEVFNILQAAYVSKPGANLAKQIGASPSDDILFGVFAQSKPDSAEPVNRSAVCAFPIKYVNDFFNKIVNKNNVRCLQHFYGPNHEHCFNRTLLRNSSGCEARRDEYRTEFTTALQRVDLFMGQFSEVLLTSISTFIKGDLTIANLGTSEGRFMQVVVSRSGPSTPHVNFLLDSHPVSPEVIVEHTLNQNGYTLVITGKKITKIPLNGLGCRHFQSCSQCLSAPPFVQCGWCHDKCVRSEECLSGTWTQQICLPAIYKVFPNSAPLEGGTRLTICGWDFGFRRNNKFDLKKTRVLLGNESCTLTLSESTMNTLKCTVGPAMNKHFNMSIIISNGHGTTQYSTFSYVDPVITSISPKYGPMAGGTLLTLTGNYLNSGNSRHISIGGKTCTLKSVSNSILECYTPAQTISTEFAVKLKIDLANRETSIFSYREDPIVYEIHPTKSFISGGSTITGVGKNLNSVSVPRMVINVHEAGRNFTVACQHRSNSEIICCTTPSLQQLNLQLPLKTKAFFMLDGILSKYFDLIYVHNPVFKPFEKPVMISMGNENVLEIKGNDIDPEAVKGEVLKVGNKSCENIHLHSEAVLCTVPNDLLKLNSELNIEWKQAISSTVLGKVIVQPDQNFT

T3: Mouse blade 3
T3 construct: human/mouse chimera on transfected HEK293 cells; also called Mouse blade 3-IPT4
T3 MET ECD-SV5-GPI fusion: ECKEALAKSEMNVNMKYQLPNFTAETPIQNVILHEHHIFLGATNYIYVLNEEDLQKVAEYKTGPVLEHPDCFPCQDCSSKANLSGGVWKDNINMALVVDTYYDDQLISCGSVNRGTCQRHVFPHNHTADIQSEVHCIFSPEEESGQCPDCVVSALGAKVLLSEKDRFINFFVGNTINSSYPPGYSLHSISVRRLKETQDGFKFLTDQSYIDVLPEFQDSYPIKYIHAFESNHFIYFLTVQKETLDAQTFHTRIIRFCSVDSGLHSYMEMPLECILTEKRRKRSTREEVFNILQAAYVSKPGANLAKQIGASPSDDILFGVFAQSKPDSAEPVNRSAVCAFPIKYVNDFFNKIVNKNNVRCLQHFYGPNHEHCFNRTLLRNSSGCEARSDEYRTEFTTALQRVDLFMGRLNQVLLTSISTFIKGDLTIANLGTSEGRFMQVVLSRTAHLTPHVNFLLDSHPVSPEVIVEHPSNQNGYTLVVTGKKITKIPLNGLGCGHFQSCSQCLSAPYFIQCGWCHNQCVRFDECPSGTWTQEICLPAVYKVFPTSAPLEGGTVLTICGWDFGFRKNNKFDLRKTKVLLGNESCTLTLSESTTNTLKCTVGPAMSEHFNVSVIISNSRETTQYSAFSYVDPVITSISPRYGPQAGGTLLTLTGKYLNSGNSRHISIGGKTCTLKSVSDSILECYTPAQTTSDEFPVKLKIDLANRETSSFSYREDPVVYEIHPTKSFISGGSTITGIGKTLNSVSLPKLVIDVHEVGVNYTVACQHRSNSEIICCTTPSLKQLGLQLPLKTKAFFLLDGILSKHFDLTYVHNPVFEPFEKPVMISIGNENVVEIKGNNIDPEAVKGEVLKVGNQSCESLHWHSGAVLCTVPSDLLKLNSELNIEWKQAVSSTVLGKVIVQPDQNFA


What was measured:
[1] = biological target: T4, His tagged cynomolgus MET ECD (Sinobiological) (cynomolgus); test: SPR (Bio-Rad XPR-36); antibody captured on anti-human IgG Fc surface, MET ECD 25 to 1.56 nM, 1:1 Langmuir fit
T4 construct: extracellular domain; Bought monovalent antigen
Procedure: His tagged human or cynomolgus MET ECD antigens were purchased from Sinobiological, China. […] Measurements were conducted with a plate rotation speed of 1000 rpm and sensors were regenerated and reused by brief 5 second alternations between exposure to 10 mM Glycine:HCl buffer (pH 1.5) or PBS buffer containing 1% BSA and 0.001% Tween 20 three times. For the Surface Plasmon Resonance experiments conducted on the Bio-Rad XPR-36 instrument, anti-MET antibodies were adjusted to a concentration of 0.25-0.5 μg/ml and captured on anti-human IgG Fc surfaces generated by immobilizing a monoclonal anti-human Fc antibody (Biacore, Denmark). […] The recorded binding responses were fitted to a simple Langmuir 1:1 binding model for calculation of the on-rate (kon or ka), off-rate (koff or kd) and affinity (KD) constants using double referencing.

[2] = biological target: T1, Mouse Blade 1-5; test: flow cytometry on transfected HEK293 cells;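 further: antibodies applied at 50 µg/ml, binding called specific when fluorescence exceeds the mean signal on a negative control chicken or mouse MET construct plus four SD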
Procedure: (§1) Cut-off values defined as the average fluorescence signal of all antibodies tested at 50 μg/ml to the negative control chicken or mouse MET construct+four standard deviations were employed to discriminate background binding from specific binding for the domain exchange or blade exchange constructs.

[3] = biological target: T2, LS4; test: flow cytometry on transfected HEK293 cells;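 further: antibodies applied at 50 µg/ml, binding called specific when fluorescence exceeds the mean signal on a negative control chicken or mouse MET construct plus four SD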
Procedure: as §1

[4] = biological target: T3, Mouse blade 3; test: flow cytometry on transfected HEK293 cells;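 further: antibodies applied at 50 µg/ml, binding called specific when fluorescence exceeds the mean signal on a negative control chicken or mouse MET construct plus four SD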
Procedure: as §1

Row | Kd [1] [nM] | koff [1] [s⁻¹] | kon [1] [M⁻¹ s⁻¹] | binding result [2] | binding result [3] | binding result [4] | Binder
1 | 0.086 | 1.6e-05 | 180000 | no binding (tested: 50 µg/ml) | no binding (tested: 50 µg/ml) | no binding (tested: 50 µg/ml) | humanized antibody 9006 (antibody, human IgG1, kappa, V domains shown, also called Hu9006; hu9006) VH: QVQLVQSGSELKKPGASVKVSCKASGYTFTNFRMNWVKQAPGQGLKWMGWINTYTGEPTYVDDLKGRFVFSLDTSVSTAYLQISSLKAEDTAVYYCARKGIARAMDYWGQGTTVTVSS VL: DIVMTQSPDSLAVSLGERATINCKSSQSLLDSGNQKNYLAWYQQKPGQPPKLLIFGASTRESGVPDRFSGSGSGTDFTLTISSLQAEDVAVYYCQNDHSYPYTFGQGTKLEIKR
2 | 0.074 | 5.4e-05 | 740000 | no binding (tested: 50 µg/ml) | no binding (tested: 50 µg/ml) |  | humanized antibody 9338 (antibody, human IgG1, kappa, V domains shown, also called Hu9338; hu9338) VH: QVQLVQSGAEVKKPGSSVKVSCKASGYTFTSYWMHWVRQAPGQGLEWMGYINPSSGHIENNQKFKDRVTITADKSTSTAYMELSSLRSEDTAVYYCARGRFAYWGQGTLVTVSS VL: EIVLTQSPATLSLSPGERATLSCSASSSVSSGYLYWYQQKPGQAPRLLIYSTSNLASGIPARFSGSGSGTDFTLTISSLEPEDFAVYYCHQWSSYPFTFGSGTKLEIKR
